Data reported in patent US20040081647.

Target: recombinant human TNFα (RDI) (UniProt P01375)
Sequence (P01375 77-233): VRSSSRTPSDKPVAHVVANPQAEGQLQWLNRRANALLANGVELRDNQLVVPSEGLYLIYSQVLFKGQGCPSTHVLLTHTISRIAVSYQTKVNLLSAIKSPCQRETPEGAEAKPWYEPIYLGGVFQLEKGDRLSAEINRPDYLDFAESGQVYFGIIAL

Chain of MMP12 (P39900 106-470): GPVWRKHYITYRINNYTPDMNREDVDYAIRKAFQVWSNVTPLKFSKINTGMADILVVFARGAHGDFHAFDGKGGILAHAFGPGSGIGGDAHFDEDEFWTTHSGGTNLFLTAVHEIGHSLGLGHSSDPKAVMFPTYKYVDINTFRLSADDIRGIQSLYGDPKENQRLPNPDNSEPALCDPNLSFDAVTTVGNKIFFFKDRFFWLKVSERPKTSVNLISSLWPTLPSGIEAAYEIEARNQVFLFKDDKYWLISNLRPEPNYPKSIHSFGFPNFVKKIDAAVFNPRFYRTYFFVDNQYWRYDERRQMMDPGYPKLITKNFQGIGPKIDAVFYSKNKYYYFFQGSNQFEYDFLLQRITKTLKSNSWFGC
Chain of Plasmin (P00747 20-580): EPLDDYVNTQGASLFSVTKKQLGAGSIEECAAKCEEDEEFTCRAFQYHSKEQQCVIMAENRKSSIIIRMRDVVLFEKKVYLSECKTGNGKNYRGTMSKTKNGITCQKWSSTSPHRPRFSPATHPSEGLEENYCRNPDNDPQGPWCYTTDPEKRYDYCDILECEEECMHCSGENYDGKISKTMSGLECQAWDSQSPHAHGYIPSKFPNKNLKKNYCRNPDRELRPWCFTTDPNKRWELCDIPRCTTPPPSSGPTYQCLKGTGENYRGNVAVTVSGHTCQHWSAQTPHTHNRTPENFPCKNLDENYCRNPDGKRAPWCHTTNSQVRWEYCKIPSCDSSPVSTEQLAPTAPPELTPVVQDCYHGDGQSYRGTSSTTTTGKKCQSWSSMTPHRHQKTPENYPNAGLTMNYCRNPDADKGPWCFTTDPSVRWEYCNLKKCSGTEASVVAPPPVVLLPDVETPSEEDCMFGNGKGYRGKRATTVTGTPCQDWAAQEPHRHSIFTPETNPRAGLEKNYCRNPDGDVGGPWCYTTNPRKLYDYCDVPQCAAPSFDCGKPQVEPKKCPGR
Chain of Plasmin (P00747 581-810): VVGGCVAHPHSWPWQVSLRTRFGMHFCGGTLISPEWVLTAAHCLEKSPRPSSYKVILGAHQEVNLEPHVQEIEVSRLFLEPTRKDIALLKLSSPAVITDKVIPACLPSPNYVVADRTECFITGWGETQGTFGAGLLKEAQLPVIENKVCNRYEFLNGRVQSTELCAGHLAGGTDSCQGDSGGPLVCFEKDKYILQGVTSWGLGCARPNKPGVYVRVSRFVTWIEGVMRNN

Substance	inactivation of TNFα (L929 cytotoxicity bioassay after overnight digestion)	log reduction in TNFα activity (L929 cytotoxicity bioassay after overnight digestion)
ADAM10	ADAM10 (under: Proteases that did not inactivate TNF)	
MT1-MMP		MT1-MMP (0.86)
ELASTASE		ELASTASE (1.45)
MMP12		MMP12 (0.65)
TACE	TACE (under: Proteases that did not inactivate TNF)	
TRYPSIN		TRYPSIN (2.3)
Enterokinase	Enterokinase (under: Proteases that did not inactivate TNF)	
CHYMOTRYPSIN		CHYMOTRYPSIN (2.74)
Tryptase		Tryptase (0.62)
Plasmin	Plasmin (under: Proteases that did not inactivate TNF)	
MT5-MMP	MT5-MMP (under: Proteases that did not inactivate TNF)	
MMP3	MMP3 (under: Proteases that did not inactivate TNF)	
Furin	Furin (under: Proteases that did not inactivate TNF)	
Kallikrein5	Kallikrein5 (under: Proteases that did not inactivate TNF)	
Urokinase	Urokinase (under: Proteases that did not inactivate TNF)	
HIV Protease	HIV Protease (under: Proteases that did not inactivate TNF)	
